Starred links: 1 amine or outer side, 2 acyl side, 3 side chain; linkers in the order of their positions; H or OH if unused. Positions of bridges follow the written chain, without caps; N, C: chain ends. Non-standard residues stand in square brackets, D forms with d. Trp(7-Et) = 7-ethyl-tryptophan, CCc1cccc2c(C[C@H](N[*:1])C(=O)[*:2])c[nH]c12; Trp(7-Me) = Cc1cccc2c(C[C@H](N)C(=O)O)c[nH]c12; 2Nal = N[C@@H](Cc1ccc2ccccc2c1)C(=O)O; AEF = NCCOc1ccc(C[C@H](N)C(=O)O)cc1; Cit = NC(=O)NCCC[C@H](N)C(=O)O; αMeL = CC(C)C[C@](C)(N)C(=O)O; Pen = CC(C)(S)[C@H](N)C(=O)O; αMeK = C[C@](N)(CCCCN)C(=O)O; Aib = CC(C)(N)C(=O)O; βAla = NCCC(=O)O
T1: interleukin-23 receptor (IL-23R) (human, UniProt Q5VWK5 24-629)
T1 sequence (looked up): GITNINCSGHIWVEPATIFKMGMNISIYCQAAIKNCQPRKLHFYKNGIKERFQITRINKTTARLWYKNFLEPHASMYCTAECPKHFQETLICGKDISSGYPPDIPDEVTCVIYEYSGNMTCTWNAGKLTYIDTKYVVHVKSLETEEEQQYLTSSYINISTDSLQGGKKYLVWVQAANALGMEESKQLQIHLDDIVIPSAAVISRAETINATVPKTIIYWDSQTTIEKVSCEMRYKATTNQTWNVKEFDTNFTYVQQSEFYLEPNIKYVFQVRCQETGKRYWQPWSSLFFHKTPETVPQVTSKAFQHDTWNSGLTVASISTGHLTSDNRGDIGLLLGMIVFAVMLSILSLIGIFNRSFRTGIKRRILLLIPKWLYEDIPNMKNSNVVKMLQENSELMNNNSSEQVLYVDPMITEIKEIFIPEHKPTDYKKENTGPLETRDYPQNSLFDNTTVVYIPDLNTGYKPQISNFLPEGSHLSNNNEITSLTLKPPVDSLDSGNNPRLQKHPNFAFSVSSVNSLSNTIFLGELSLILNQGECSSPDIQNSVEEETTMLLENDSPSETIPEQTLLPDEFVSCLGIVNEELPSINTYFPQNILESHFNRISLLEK


What was measured:
[1] = target: T1, interleukin-23 receptor (IL-23R); experiment: cell-based or functional assay
[2] = target: T1, interleukin-23 receptor (IL-23R); experiment: cell-based or functional assay; remark: listed apart in the source

Row | Binder | pStat3 HTRF IC50 [1] | NK Cell Assay IC50 [2]
1 | XNTXQXXXXKNX (Ac-[Pen]-NT-[W(1-Me)]-Q-[Pen]-Phe[4-(2-aminoethoxy)]-[2-Nal]-[a-MeLys]-[Lys(Ac)]-N-[bA]-NH2; Pen-Pen disulfide) [Peptide of SEQ ID NO: 232] | 4.5 nM | 9 nM
2 | XNTXXXXXXKNX (Ac-[Pen]-NT-[W(7-Me)]-[a-MeLys]-[Pen]-Phe[4-(2-aminoethoxy)]-[2-Nal]-[a-MeLeu]-[Lys(Ac)]-N-[bA]-NH2; Pen-Pen disulfide) [Peptide of SEQ ID NO: 234] | 3.48 nM | 7.7 nM
3 | Ac-[Pen]NT[Trp(7-Me)][αMeL][Pen][AEF][2Nal][αMeK]K(Ac)N[βAla]-NH2 (disulfide 1-6) [Peptide of SEQ ID NO: 235] | 3.21 nM | 10.2 nM
4 | XNTXQXXXXXNX (Ac-[Pen]-NT-[W(7-Me)]-Q-[Pen]-Phe[4-(2-aminoethoxy)]-[2-Nal]-[a-MeLys]-[Aib]-N-[bA]-NH2; Pen-Pen disulfide) [Peptide of SEQ ID NO: 236] | 5.21 nM | 5.82 nM
5 | Ac-[Pen][Cit]T[Trp(7-Me)]Q[Pen][AEF][2Nal][αMeK]K(Ac)N[βAla]-NH2 (disulfide 1-6; SMILES CC(=O)NCCCC[C@H](NC(=O)[C@](C)(CCCCN)NC(=O)[C@H](Cc1ccc2ccccc2c1)NC(=O)[C@H](Cc1ccc(OCCN)cc1)NC(=O)[C@H]1NC(=O)[C@H](CCC(N)=O)NC(=O)[C@H](Cc2c[nH]c3c(C)cccc23)NC(=O)[C@H]([C@@H](C)O)NC(=O)[C@H](CCCNC(N)=O)NC(=O)[C@@H](NC(C)=O)C(C)(C)SSC1(C)C)C(=O)N[C@@H](CC(N)=O)C(=O)NCCC(N)=O) [Peptide of SEQ ID NO: 238] | 1.06 nM | 2.99 nM
6 | XKTXQXXXXKNX (Ac-[Pen]-[Lys(Ac)]-T-[W(7-Me)]-Q-[Pen]-Phe[4-(2-aminoethoxy)]-[2-Nal]-[a-MeLys]-[Lys(Ac)]-N-[bA]-NH2; Pen-Pen disulfide) [Peptide of SEQ ID NO: 239] | 1.66 nM | 4.1 nM
7 | XNTXKXXXXKNX (Ac-[Pen]-NT-[W(7-Me)]-[Lys(Ac)]-[Pen]-Phe[4-(2-aminoethoxy)]-[2-Nal]-[a-MeLys]-[Lys(Ac)]-N-[bA]-NH2; Pen-Pen disulfide) [Peptide of SEQ ID NO: 242] | 0.641 nM | 2.37 nM
8 | XNTXKXXXXKNL (Ac-[Pen]-NT-[W(7-Me)]-[Lys(Ac)]-[Pen]-Phe[4-(2-aminoethoxy)]-[2-Nal]-[a-MeLys]-[Lys(Ac)]-N-[(D)Leu]-NH2; Pen-Pen disulfide) [Peptide of SEQ ID NO: 245] | 0.51 nM | 2.7 nM
9 | XNTXKXXXXKNV (Ac-[Pen]-NT-[W(7-Me)]-[Lys(Ac)]-[Pen]-Phe[4-(2-aminoethoxy)]-[2-Nal]-[a-MeLys]-[Lys(Ac)]-N-[(D)Val]-NH2; Pen-Pen disulfide) [Peptide of SEQ ID NO: 251] | 0.986 nM | 8.19 nM
10 | XNTXKXXXXKNK (Ac-[Pen]-NT-[W(7-Me)]-[Lys(Ac)]-[Pen]-Phe[4-(2-aminoethoxy)]-[2-Nal]-[a-MeLys]-[Lys(Ac)]-N-[(D)Lys]-NH2; Pen-Pen disulfide) [Peptide of SEQ ID NO: 252] | 0.338 nM | 3.32 nM
11 | XNTXKXXXXKNF (Ac-[Pen]-NT-[W(7-Me)]-[Lys(Ac)]-[Pen]-Phe[4-(2-aminoethoxy)]-[2-Nal]-[a-MeLys]-[Lys(Ac)]-N-[(D)Phe]-NH2; Pen-Pen disulfide) [Peptide of SEQ ID NO: 258] | 0.92 nM | 9.7 nM
12 | Ac-[Pen]NT[Trp(7-Me)][Cit][Pen][AEF][2Nal][αMeK]K(Ac)N[dY]-NH2 (disulfide 1-6; SMILES CC(=O)NCCCC[C@H](NC(=O)[C@](C)(CCCCN)NC(=O)[C@H](Cc1ccc2ccccc2c1)NC(=O)[C@H](Cc1ccc(OCCN)cc1)NC(=O)[C@H]1NC(=O)[C@H](CCCNC(N)=O)NC(=O)[C@H](Cc2c[nH]c3c(C)cccc23)NC(=O)[C@H]([C@@H](C)O)NC(=O)[C@H](CC(N)=O)NC(=O)[C@@H](NC(C)=O)C(C)(C)SSC1(C)C)C(=O)N[C@@H](CC(N)=O)C(=O)N[C@H](Cc1ccc(O)cc1)C(N)=O) [Peptide of SEQ ID NO: 259] | 0.607 nM | 7.6 nM
13 | Ac-[Pen]NT[Trp(7-Me)][Cit][Pen][AEF][2Nal][αMeK]K(Ac)N[dS]-NH2 (disulfide 1-6; SMILES CC(=O)NCCCC[C@H](NC(=O)[C@](C)(CCCCN)NC(=O)[C@H](Cc1ccc2ccccc2c1)NC(=O)[C@H](Cc1ccc(OCCN)cc1)NC(=O)[C@H]1NC(=O)[C@H](CCCNC(N)=O)NC(=O)[C@H](Cc2c[nH]c3c(C)cccc23)NC(=O)[C@H]([C@@H](C)O)NC(=O)[C@H](CC(N)=O)NC(=O)[C@@H](NC(C)=O)C(C)(C)SSC1(C)C)C(=O)N[C@@H](CC(N)=O)C(=O)N[C@H](CO)C(N)=O) [Peptide of SEQ ID NO: 261] | 0.522 nM | 4.87 nM
14 | Ac-[Pen]NT[Trp(7-Me)][Cit][Pen][AEF][2Nal][αMeK]K(Ac)N[Aib]-NH2 (disulfide 1-6; SMILES CC(=O)NCCCC[C@H](NC(=O)[C@](C)(CCCCN)NC(=O)[C@H](Cc1ccc2ccccc2c1)NC(=O)[C@H](Cc1ccc(OCCN)cc1)NC(=O)[C@H]1NC(=O)[C@H](CCCNC(N)=O)NC(=O)[C@H](Cc2c[nH]c3c(C)cccc23)NC(=O)[C@H]([C@@H](C)O)NC(=O)[C@H](CC(N)=O)NC(=O)[C@@H](NC(C)=O)C(C)(C)SSC1(C)C)C(=O)N[C@@H](CC(N)=O)C(=O)NC(C)(C)C(N)=O) [Peptide of SEQ ID NO: 264] | 0.596 nM | 5.15 nM
15 | Ac-[Pen]NT[Trp(7-Et)]K(Ac)[Pen][AEF][2Nal][αMeK]K(Ac)N[dL]-NH2 (disulfide 1-6; SMILES CCc1cccc2c(C[C@@H]3NC(=O)[C@H]([C@@H](C)O)NC(=O)[C@H](CC(N)=O)NC(=O)[C@@H](NC(C)=O)C(C)(C)SSC(C)(C)[C@@H](C(=O)N[C@@H](Cc4ccc(OCCN)cc4)C(=O)N[C@@H](Cc4ccc5ccccc5c4)C(=O)N[C@@](C)(CCCCN)C(=O)N[C@@H](CCCCNC(C)=O)C(=O)N[C@@H](CC(N)=O)C(=O)N[C@H](CC(C)C)C(N)=O)NC(=O)[C@H](CCCCNC(C)=O)NC3=O)c[nH]c12) [Peptide of SEQ ID NO: 284] | 0.34 nM | 3.16 nM
16 | Ac-[Pen]NT[Trp(7-Me)]K(Ac)[Pen][2Nal][2Nal][αMeK]K(Ac)N[dL]-NH2 (disulfide 1-6 (inferred)) [Peptide of SEQ ID NO: 289] | 1.91 nM | 5.12 nM
17 | Ac-[Pen]NT[Trp(7-Me)]K(Ac)[Pen]H[2Nal][αMeK]K(Ac)N[dL]-NH2 (disulfide 1-6 (inferred)) [Peptide of SEQ ID NO: 290] | 2.45 nM | 11 nM

— patent US20220041658A1 (PROTAGONIST THERAPEUTICS, published 2022)
